Laboratory results: PMC4613514

Molecular target: Keap1–mCherry (Kelch-like ECH associated protein 1 fused to mCherry) (UniProt Q9Z2X8)
Assay: FRET or BRET

Chain of UniProt Q9Z2X8 (Q9Z2X8 whole entry, the tested form may be a part): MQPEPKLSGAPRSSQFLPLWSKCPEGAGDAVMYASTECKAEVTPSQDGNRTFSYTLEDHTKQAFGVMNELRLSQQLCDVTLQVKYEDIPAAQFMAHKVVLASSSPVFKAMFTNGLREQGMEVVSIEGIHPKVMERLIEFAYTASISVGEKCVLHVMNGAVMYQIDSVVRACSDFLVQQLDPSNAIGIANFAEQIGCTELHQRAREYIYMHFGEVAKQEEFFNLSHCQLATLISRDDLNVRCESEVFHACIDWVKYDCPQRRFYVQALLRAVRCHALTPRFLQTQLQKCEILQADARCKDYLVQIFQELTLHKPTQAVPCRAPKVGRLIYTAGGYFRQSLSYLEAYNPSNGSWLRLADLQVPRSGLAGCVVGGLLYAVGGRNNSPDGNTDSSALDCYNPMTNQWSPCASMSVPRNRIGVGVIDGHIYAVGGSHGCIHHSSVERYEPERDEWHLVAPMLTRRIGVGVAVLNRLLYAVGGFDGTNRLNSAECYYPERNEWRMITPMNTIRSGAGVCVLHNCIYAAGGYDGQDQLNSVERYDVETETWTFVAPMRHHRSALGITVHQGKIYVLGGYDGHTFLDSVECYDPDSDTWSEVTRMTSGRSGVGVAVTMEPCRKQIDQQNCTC

| E-FRET (major peak) [%] | Substance |
| --- | --- |
| 21 | EGFP–Nrf2 double ETGE (from UniProt Q60795 1-597) (natural protein) |
| 13 | EGFP–Nrf2ΔDLG (from UniProt Q60795 1-597) (natural protein) |
